Data from IntAct's records for PubMed 15197186.

Serine/threonine-protein kinase 38-like (Homo sapiens), Q9Y2H1 Y32A, sequence (Q9Y2H1 whole entry Y32A): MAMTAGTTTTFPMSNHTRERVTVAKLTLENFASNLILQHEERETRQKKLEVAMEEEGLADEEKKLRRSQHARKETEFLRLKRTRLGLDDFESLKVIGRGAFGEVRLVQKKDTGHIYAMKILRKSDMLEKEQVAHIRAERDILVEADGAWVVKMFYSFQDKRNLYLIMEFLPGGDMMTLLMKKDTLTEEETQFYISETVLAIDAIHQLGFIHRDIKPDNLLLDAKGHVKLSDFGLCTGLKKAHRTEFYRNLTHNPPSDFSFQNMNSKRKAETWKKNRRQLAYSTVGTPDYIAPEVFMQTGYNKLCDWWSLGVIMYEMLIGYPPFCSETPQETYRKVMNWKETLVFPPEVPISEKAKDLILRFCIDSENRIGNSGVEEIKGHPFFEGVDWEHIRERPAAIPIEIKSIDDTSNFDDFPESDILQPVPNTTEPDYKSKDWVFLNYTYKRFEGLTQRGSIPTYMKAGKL
Serine/threonine-protein kinase 38 (Homo sapiens), Q15208 L79A, sequence (Q15208 whole entry L79A): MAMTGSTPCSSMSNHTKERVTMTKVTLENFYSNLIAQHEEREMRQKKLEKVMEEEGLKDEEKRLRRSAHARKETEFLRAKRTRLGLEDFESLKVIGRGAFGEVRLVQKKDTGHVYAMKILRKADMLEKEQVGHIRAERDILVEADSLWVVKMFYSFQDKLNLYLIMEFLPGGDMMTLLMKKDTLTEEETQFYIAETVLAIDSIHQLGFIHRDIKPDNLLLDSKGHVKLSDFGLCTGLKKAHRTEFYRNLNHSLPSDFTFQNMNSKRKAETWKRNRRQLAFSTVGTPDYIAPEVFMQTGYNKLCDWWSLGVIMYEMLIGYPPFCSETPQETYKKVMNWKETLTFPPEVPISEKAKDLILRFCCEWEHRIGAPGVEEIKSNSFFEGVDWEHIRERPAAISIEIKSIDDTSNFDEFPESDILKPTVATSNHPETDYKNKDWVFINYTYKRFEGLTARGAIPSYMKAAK
Serine/threonine-protein kinase 38 (Homo sapiens), Q15208 Y31A, sequence (Q15208 whole entry Y31A): as the sequence (Q15208 whole entry L79A) above, with Y31A, A79L counted along it
Serine/threonine-protein kinase 38 (Homo sapiens), Q15208 R41A, sequence (Q15208 whole entry R41A): as the sequence (Q15208 whole entry L79A) above, with R41A, A79L counted along it
Serine/threonine-protein kinase 38 (Homo sapiens), Q15208 K24A, sequence (Q15208 whole entry K24A): as the sequence (Q15208 whole entry L79A) above, with K24A, A79L counted along it
Serine/threonine-protein kinase 38 (Homo sapiens), Q15208 R44A, sequence (Q15208 whole entry R44A): as the sequence (Q15208 whole entry L79A) above, with R44A, A79L counted along it
Serine/threonine-protein kinase 38 (Homo sapiens), Q15208 R78A, sequence (Q15208 whole entry R78A): as the sequence (Q15208 whole entry L79A) above, with R78A, A79L counted along it
Serine/threonine-protein kinase 38 (Homo sapiens), Q15208 T74A, sequence (Q15208 whole entry T74A): as the sequence (Q15208 whole entry L79A) above, with T74A, A79L counted along it

What follows are substances tested against mob1a_human MOB1A (UniProt Q9H8S9).
mob1a_human MOB1A, sequence (Q9H8S9 whole entry): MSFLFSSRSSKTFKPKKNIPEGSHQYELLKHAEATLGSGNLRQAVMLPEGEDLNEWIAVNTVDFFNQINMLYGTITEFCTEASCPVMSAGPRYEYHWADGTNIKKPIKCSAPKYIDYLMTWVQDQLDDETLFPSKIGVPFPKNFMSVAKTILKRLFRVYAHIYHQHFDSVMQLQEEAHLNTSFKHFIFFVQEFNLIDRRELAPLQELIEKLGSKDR
In the case of “Serine/threonine-protein kinase 38 (Homo sapiens), Q15208 K24A”, the “effect of a mutation on the interaction” value is reported as “decreasing interaction”.
With “Serine/threonine-protein kinase 38 (Homo sapiens), Q15208 L79A” the “effect of a mutation on the interaction” value was “decreasing interaction”.
“Serine/threonine-protein kinase 38 (Homo sapiens), Q15208 R41A” was tested, and the “effect of a mutation on the interaction” value was “disrupting interaction”.
In the case of “Serine/threonine-protein kinase 38 (Homo sapiens), Q15208 R44A”, the “effect of a mutation on the interaction” value is reported as “decreasing interaction”.
With “Serine/threonine-protein kinase 38 (Homo sapiens), Q15208 R78A” the “effect of a mutation on the interaction” value was “disrupting interaction”.
For “Serine/threonine-protein kinase 38 (Homo sapiens), Q15208 T74A”, the “effect of a mutation on the interaction” value was “disrupting interaction”.
“Serine/threonine-protein kinase 38 (Homo sapiens), Q15208 Y31A” was tested, and the “effect of a mutation on the interaction” value was “disrupting interaction”.

Target: mob1a_human MOB1A (UniProt Q9H8S9)
Remark: another data set of the same source
In the case of “Serine/threonine-protein kinase 38-like (Homo sapiens), Q9Y2H1 Y32A”, the “effect of a mutation on the interaction” value is reported as “disrupting interaction”.
